Experimental data: patent US20150087812A1 (Janssen / Centocor, published 2015)

How the values were obtained:
[1] = molecular target: T1, recombinant human ATX beta isoform with N-terminal purification tag (human, UniProt Q13822 49-863); assay: Fab-His ELISA
Method: (§1) Fabs were captured on black MaxiSorp plates (Nunc, Cat. No. 437111) coated with 1 μg/ml sheep anti-human Fd (CH1) antibody (The Binding Site, Cat. No. PC075). Plates were washed and biotinylated human ATX was added to the captured Fabs at 5 nM. Incubation was carried out for 1 hour at room temperature with gentle shaking. Plates were washed, SA-HRP (Invitrogen, Cat. No. 43-4323) was added and chemiluminescent detection carried out.
(§2) Clones with binding above background were sequenced and unique clones identified. […] These clones were identified with binding signal to human ATX at least 6-fold above the background. Table 3 lists the identifier for VH and VL (Peptide ID) and the combination of both (Fab ID) sorted by the Fab ELISA binding data.

[2] = molecular target: T1, recombinant human ATX beta isoform with …; assay: ELISA, Fab-His captured by anti-Fd, 5 nM biotinylated human ATX beta
Method: as §1, §2

Binder	fold above background [1]	Fab Binding [2]
Fab F63 (VH H55, VL L57) (Fab, V domains shown, Soluble Fab-His) VH: QVQLVQSGAEVKKPGSSVKVSCKASGGTFSSYGISWVRQAPGQGLEWMGGIIPIFGTANYAQKFQGRVTITADESTSTAYMELSSLRSEDTAVYYCARRDGNYLHVDHFDYWGQGTLVTVSS VL: EIVLTQSPATLSLSPGERATLSCRASQSVASALAWYQQKPGQAPRLLIYKASNRATGIPARFSGSGSGTDFTLTISSLEPEDFAVYYCQQGGNWPWTFGQGTKVEIK	≥ 6 fold	980000 relative chemiluminescence units
Fab F69 (VH H63, VL L63) (Fab, V domains shown, Soluble Fab-His) VH: QVQLVQSGAEVKKPGSSVKVSCKASGGTFSSYAISWVRQAPGQGLEWMGGIIPIFGTANYAQKFQGRVTITADESTSTAYMELSSLRSEDTAVYYCARDDDVNSLASYPLDYWGQGTLVTVSS VL: EIVLTQSPATLSLSPGERATLSCRASQSVSKALAWYQQKPGQAPRLLIYYASNRATGIPARFSGSGSGTDFTLTISSLEPEDFAVYYCQQYKNAPRTFGQGTKVEIK	≥ 6 fold	2e+06 relative chemiluminescence units
Fab F5 (VH H4, VL L4) (Fab, V domains shown, Soluble Fab-His; converted to mAb B1) VH: EVQLVQSGAEVKKPGESLKISCKGSGYSFTSYWIGWVRQMPGKGLEWMGIIYPGDSDTRYSPSFQGQVTISADKSISTAYLQWSSLKASDTAMYYCARNWSEALYVVFDYWGQGTLVTVSS VL: EIVLTQSPATLSLSPGERATLSCRASQSVANFLAWYQQKPGQAPRLLIYYASNRATGIPARFSGSGSGTDFTLTISSLEPEDFAVYYCQQYFSAPFTFGQGTKVEIK	≥ 6 fold	3.8e+06 relative chemiluminescence units
Fab F74 (VH H68, VL L68) (Fab, V domains shown, Soluble Fab-His) VH: QVQLVQSGAEVKKPGSSVKVSCKASGGTFSSYAISWVRQAPGQGLEWMGGIIPIFGTANYAQKFQGRVTITADESTSTAYMELSSLRSEDTAVYYCARDGDVNSVYSSGLDYWGQGTLVTVSS VL: EIVLTQSPATLSLSPGERATLSCRASQSVNKFLAWYQQKPGQAPRLLIYFASNRATGIPARFSGSGSGTDFTLTISSLEPEDFAVYYCQQYNHAPFTFGQGTKVEIK	≥ 6 fold	1.7e+06 relative chemiluminescence units
Fab F100 (VH H93, VL PH9L1) (Fab, V domains shown, Soluble Fab-His) VH: QVQLVQSGAEVKKPGSSVKVSCKASGGTFSSYAISWVRQAPGQGLEWMGGIIPIFGNTNYAQKFQGRVTITADESTSTAYMELSSLRSEDTAVYYCARHYLPDATLDYWGQGTLVTVSS VL: not shown	≥ 6 fold	1.9e+06 relative chemiluminescence units
Fab F105 (VH H97, VL L93) (Fab, V domains shown, Soluble Fab-His) VH: QVQLVQSGAEVKKPGSSVKVSCKASGGTFSSYGISWVRQAPGQGLEWMGGIIPIFGTANYAQKFQGRVTITADESTSTAYMELSSLRSEDTAVYYCARGDDNEVIYHLDYWGQGTLVTVSS VL: EIVLTQSPGTLSLSPGERATLSCRASQSVAKSDLAWYQQKPGQAPRLLIYTASSRATGIPDRFSGSGSGTDFTLTISRLEPEDFAVYYCQQDYGYPLTFGQGTKVEIK	≥ 6 fold	970000 relative chemiluminescence units
Fab F130 (VH H129, VL L113) (Fab, V domains shown, Soluble Fab-His) VH: QVQLVQSGAEVKKPGSSVKVSCKASGGTFSSYAISWVRQAPGQGLEWMGGIIPIFGTANYAQKFQGRVTITADESTSTAYMELSSLRSEDTAVYYCARDHGYAYYSAFDYWGQGTLVTVSS VL: EIVLTQSPGTLSLSPGERATLSCRASQSVSSSYLAWYQQKPGQAPRLLIYGASSRATGIPDRFSGSGSGTDFTLTISRLEPEDFAVYYCQQSSRDPWTFGQGTKVEIK	≥ 6 fold	2.2e+06 relative chemiluminescence units
Fab F135 (VH H138, VL L118) (Fab, V domains shown, Soluble Fab-His) VH: QVQLVQSGAEVKKPGSSVKVSCKASGGTFSSYAISWVRQAPGQGLEWMGGIIPIFGTANYAQKFQGRVTITADESTSTAYMELSSLRSEDTAVYYCARDFLSQFSWLDYWGQGTLVTVSS VL: EIVLTQSPGTLSLSPGERATLSCRASQSVSSSYLAWYQQKPGQAPRLLIYGASSRATGIPDRFSGSGSGTDFTLTISRLEPEDFAVYYCQQSSGFPLTFGQGTKVEIK	≥ 6 fold	2e+06 relative chemiluminescence units
Fab F126 (VH H123, VL L110) (Fab, V domains shown, Soluble Fab-His; converted to mAb B12) VH: QVQLVQSGAEVKKPGSSVKVSCKASGGTFSSYAISWVRQAPGQGLEWMGGIIPIFGTANYAQKFQGRVTITADESTSTAYMELSSLRSEDTAVYYCARDRYYFTVLDYWGQGTLVTVSS VL: EIVLTQSPGTLSLSPGERATLSCRASQSVSSSYLAWYQQKPGQAPRLLIYGASSRATGIPDRFSGSGSGTDFTLTISRLEPEDFAVYYCQQATAFPLTFGQGTKVEIK	≥ 6 fold	2.4e+06 relative chemiluminescence units
Fab F78 (VH H73, VL L73) (Fab, V domains shown, Soluble Fab-His) VH: QVQLVQSGAEVKKPGSSVKVSCKASGGTFSSYAISWVRQAPGQGLEWMGGIIPIFGTANYAQKFQGRVTITADESTSTAYMELSSLRSEDTAVYYCARGTFTYDFLDYWGQGTLVTVSS VL: EIVLTQSPGTLSLSPGERATLSCRASQSVSSSYLAWYQQKPGQAPRLLIYGASSRATGIPDRFSGSGSGTDFTLTISRLEPEDFAVYYCQQSSRFPWTFGQGTKVEIK	≥ 6 fold	1.9e+06 relative chemiluminescence units
Fab F93 (VH H86, VL L79) (Fab, V domains shown, Soluble Fab-His) VH: QVQLVQSGAEVKKPGSSVKVSCKASGGTFSSYAISWVRQAPGQGLEWMGGIIPIFGTANYAQKFQGRVTITADESTSTAYMELSSLRSEDTAVYYCARDTFWFTVFDYWGQGTLVTVSS VL: EIVLTQSPGTLSLSPGERATLSCRASQSVSSSYLAWYQQKPGQAPRLLIYGASSRATGIPDRFSGSGSGTDFTLTISRLEPEDFAVYYCQQSNTLPLTFGQGTKVEIK	≥ 6 fold	1.6e+06 relative chemiluminescence units
Fab F122 (VH H119, VL L108) (Fab, V domains shown, Soluble Fab-His) VH: QVQLVQSGAEVKKPGSSVKVSCKASGGTFSSYAISWVRQAPGQGLEWMGGIIPIFGTANYAQKFQGRVTITADESTSTAYMELSSLRSEDTAVYYCARDGVTTYDYFDYWGQGTLVTVSS VL: EIVLTQSPGTLSLSPGERATLSCRASQSVSSSYLAWYQQKPGQAPRLLIYGASSRATGIPDRFSGSGSGTDFTLTISRLEPEDFAVYYCQQSSRYPWTFGQGTKVEIK	≥ 6 fold	1.9e+06 relative chemiluminescence units
Fab F118 (VH H111, VL L104) (Fab, V domains shown, Soluble Fab-His; converted to mAb B11) VH: QVQLVQSGAEVKKPGSSVKVSCKASGGTFSSYGISWVRQAPGQGLEWMGGIIPIFGTANYAQKFQGRVTITADESTSTAYMELSSLRSEDTAVYYCARDDLPLGMLDYWGQGTLVTVSS VL: EIVLTQSPGTLSLSPGERATLSCRASQSVSSSYLAWYQQKPGQAPRLLIYGASSRATGIPDRFSGSGSGTDFTLTISRLEPEDFAVYYCQQYTAFPLTFGQGTKVEIK	≥ 6 fold	2.6e+06 relative chemiluminescence units
Fab F128 (VH H127, VL L111) (Fab, V domains shown, Soluble Fab-His) VH: QVQLVQSGAEVKKPGSSVKVSCKASGGTFSSYAISWVRQAPGQGLEWMGGIIPIFGNANYAQKFQGRVTITADESTSTAYMELSSLRSEDTAVYYCARGFVNFSRLDYWGQGTLVTVSS VL: EIVLTQSPGTLSLSPGERATLSCRASQSVSSSYLAWYQQKPGQAPRLLIYGASSRATGIPDRFSGSGSGTDFTLTISRLEPEDFAVYYCQQDSAFPWTFGQGTKVEIK	≥ 6 fold	1.8e+06 relative chemiluminescence units
Fab F68 (VH H62, VL L62) (Fab, V domains shown, Soluble Fab-His) VH: QVQLVQSGAEVKKPGSSVKVSCKASGGTFSSYGISWVRQAPGQGLEWMGGIIPIFGTTNYAQKFQGRVTITADESTSTAYMELSSLRSEDTAVYYCARDWWVTDILDYWGQGTLVTVSS VL: EIVLTQSPGTLSLSPGERATLSCRASQSVSSSYLAWYQQKPGQAPRLLIYGASSRATGIPDRFSGSGSGTDFTLTISRLEPEDFAVYYCQQSNTNPLTFGQGTKVEIK	≥ 6 fold	1.8e+06 relative chemiluminescence units
